Laboratory results as given in patent publication US12534534 (F STAR BETA, dated 2026).

Tests used:
[1] = target: human CD137 on DO11.10-hCD137 cells (human, UniProt Q07011 24-255); experiment: cell-based or functional assay
hCD137-mFc-Avi [2] = target: T1, hCD137-mFc-Avi (human, UniProt Q07011 24-186); experiment: SPR, antigens immobilised on CM5 chip, mAb^2 at 1 µM and 1 nM, binding level at end of association
T1 construct: dimer; also called human CD137-mFc-Avi; human CD137-mFc
Experimental: CD137 belongs to the tumour necrosis factor receptor superfamily (TNFRSF) of cytokine receptors (Moran et al., 2013). To analyse the specificity of the anti-CD137 Fab binding site of the five mAb² molecules, binding of the mAb² to human CD137 and five closely-related human TNFRSF members (TNFRSF1A, TNFRSF1B, GITR, NGFR and CD40) was tested using SPR.
(§1) Flow cell 1 was run as a blank immobilisation. The five FS20-22-49AA/FS30 mAb² were diluted to 1 μM and 1 nM in 1×HBS-EP buffer (GE Healthcare, product code BR100188), allowed to flow over the chip for 3 min and then allowed to dissociate for 4 minutes. A 30-second injection of 10 mM glycine pH 1.5 was used for regeneration. […] Binding levels were determined at the end of the association phase and compared.

[3] = target: human CD137 on primary human CD8+ T cells (human, UniProt Q07011 24-255); experiment: cell-based or functional assay
hCD137-mFc-Avi [4] = target: T1, hCD137-mFc-Avi; experiment: ELISA, hCD137-mFc-Avi coated, 100 nM antibody, competitor CD137L-His; normalised to G1/11D4 = 0 and G1/MOR7480.1 = 100; mean of n=2
Experimental: The following day, plates were washed with PBST (PBS+0.05% Tween20™) and blocked with PBS+1% BSA (Sigma, A3059-500G) for 1 hour at room temperature with agitation. After blocking, the plates were washed again with PBST. A 100 nM dilution of each test antibody was prepared in PBS+1% BSA and added to the CD137-coated plates and incubated for 1 hour at room temperature with agitation. […] The plates were then washed with PBST and then incubated with anti-his secondary antibody (R&D Systems, MAB050H) at a 1 in 1000 dilution in PBS for 1 hour at room temperature with agitation. The plates were then washed with PBST and incubated with TMB detection reagent (Thermo Fisher Scientific, 002023) until the positive control wells turned blue and then the reaction was stopped with the addition of 2N H_2SO_4. Plates were read at 450 nm using the plate reader with Gen5 Software, BioTek. Absorbance values of 630 nm were subtracted from those of 450 nm (Correction). The subtracted absorbance values were plotted vs the log concentration of antibody and the resulting curves were fitted using the log (inhibitor) vs response equation in GraphPad Prism.

hCD137-mFc-Avi [5] = target: T1, hCD137-mFc-Avi; experiment: cell-based, 100 nM hCD137-mFc-Avi with 200 nM antibody, competitor human CD137L on DO11.10 cells, GMFI normalised to G1/11D4 = 0 and G1/MOR7480.1 = 100; mean of n=2
Experimental: The cells were washed once in PBS and 100 μl/well of secondary antibody (anti-mouse Fc-488 antibody, Jackson Immuno Research, 115-546-008) diluted 1:1000 in PBS containing 2% BSA was then added and incubated for 30 mins at 4° C. in the dark. The cells were washed once with PBS and resuspended in 100 μl of PBS containing DAPI (Biotium, 40043) at 1 μg/ml. The cells were analysed using a Canto II flow cytometer (BD Bioscience). Dead cells were excluded and the fluorescence in the FITC channel (488 nm/530/30) was measured. […] The data was analysed using a one-way ANOVA test and Tukey's multiple comparisons test using GraphPad Prism.

TNFRSF1A-Fc = target: T2, TNFRSF1A-Fc (human, UniProt P19438 30-211, limits assumed); experiment: SPR, antigen immobilised on CM5 chip
T2 construct: bought; also called TNFRSF1A (R&D Systems, 372-RI-050/CF); not shown: Fc part of the bought fusion
T2 sequence (looked up): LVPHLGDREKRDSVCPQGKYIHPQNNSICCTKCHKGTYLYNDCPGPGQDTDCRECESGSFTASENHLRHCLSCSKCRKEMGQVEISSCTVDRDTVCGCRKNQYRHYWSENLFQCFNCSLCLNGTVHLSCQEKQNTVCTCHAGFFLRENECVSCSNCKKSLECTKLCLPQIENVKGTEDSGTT
Experimental: as §1
(§2) Specificity was tested against the same five human TNFRSF members closely-related to CD137 (TNFRSF1A, TNFRSF1B, GITR, NGFR and CD40) plus an additional closely-related TNFRSF member, human DR6 (DR6-Fc; R&D Systems, 144-DR-100), using SPR as described in Example 3.1.

TNFRSF1B-Fc = target: T3, TNFRSF1B-Fc (human, UniProt P20333 23-257); experiment: SPR, antigen immobilised on CM5 chip
T3 construct: bought; also called TNFRSF1B (R&D Systems, 726-R2-050); not shown: Fc part of the bought fusion
T3 sequence (looked up): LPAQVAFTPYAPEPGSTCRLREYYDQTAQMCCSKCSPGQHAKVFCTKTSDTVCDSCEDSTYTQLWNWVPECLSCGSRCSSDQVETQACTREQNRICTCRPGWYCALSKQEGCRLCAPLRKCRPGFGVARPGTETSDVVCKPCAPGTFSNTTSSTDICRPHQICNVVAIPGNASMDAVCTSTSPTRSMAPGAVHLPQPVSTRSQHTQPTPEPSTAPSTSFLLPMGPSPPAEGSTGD
Experimental: as §1, §2

GITR-hFc-Avi = target: T4, GITR-hFc-Avi (human, UniProt Q9Y5U5 26-161); experiment: SPR, antigen immobilised on CM5 chip
T4 construct: in-house produced; not shown: hFc and Avi part
T4 sequence: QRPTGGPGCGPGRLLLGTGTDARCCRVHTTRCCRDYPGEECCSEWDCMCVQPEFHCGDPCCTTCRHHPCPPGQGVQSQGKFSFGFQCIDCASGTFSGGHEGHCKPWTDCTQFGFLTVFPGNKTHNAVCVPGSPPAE
Experimental: as §1, §2

NGFR-Fc = target: T5, NGFR-Fc (human, UniProt P08138 29-250); experiment: SPR, antigen immobilised on CM5 chip
T5 construct: bought; also called NGFR (R&D Systems, 367-NR-050/CF); not shown: Fc part of the bought fusion
T5 sequence (looked up): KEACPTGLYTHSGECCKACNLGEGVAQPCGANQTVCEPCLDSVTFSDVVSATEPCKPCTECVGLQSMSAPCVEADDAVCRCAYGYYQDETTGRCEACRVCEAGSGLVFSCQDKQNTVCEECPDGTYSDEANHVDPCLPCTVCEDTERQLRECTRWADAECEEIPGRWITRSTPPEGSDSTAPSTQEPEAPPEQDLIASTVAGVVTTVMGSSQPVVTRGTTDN
Experimental: as §1, §2

CD40-mFc = target: T6, CD40-mFc (human, UniProt P25942 21-193); experiment: SPR, antigen immobilised on CM5 chip
T6 construct: in-house produced; not shown: mFc part
Experimental: as §1, §2

B1: FS20-22-49AA/FS30-5 variant, Methionine (100D) to I (bispecific antibody, V domains shown)
VH: EVQLLESGGGLVQPGGSLRLNCAASGFTFSSYAMSWVRQAPGKGLEWVSAISGSGGSTYYADSVKGRFTISRDNSKNTLYLQMNSLRAEDTAVYYCARSYDKYWGSSIYSGMDYWGQGTLVTVSS
VL: EIVLTQSPGTLSLSPGERATLSCRASQSVSSSYLAWYQQKPGQAPRLLIYGASSRATGIPDRFSGSGSGTDFTLTISRLEPEDFAVYYCQQYYSYYPVTFGQGTKVEIKR
DO11.10-hCD137 T cell activation assay EC50 (nM), crosslinked [1]: 4.4 nM

B2: FS20-22-49AA/FS30-5 (bispecific antibody, human IgG1, kappa, L234A L235A, V domains shown)
VH: EVQLLESGGGLVQPGGSLRLNCAASGFTFSSYAMSWVRQAPGKGLEWVSAISGSGGSTYYADSVKGRFTISRDNSKNTLYLQMNSLRAEDTAVYYCARSYDKYWGSSMYSGMDYWGQGTLVTVSS
VL: EIVLTQSPGTLSLSPGERATLSCRASQSVSSSYLAWYQQKPGQAPRLLIYGASSRATGIPDRFSGSGSGTDFTLTISRLEPEDFAVYYCQQYYSYYPVTFGQGTKVEIKR
notes: also called FS30-5 in mAb^2 format
DO11.10-hCD137 T cell activation assay EC50 (nM), crosslinked [1]: 4.8 nM | fold specificity for CD137 over TNFRSF1A, TNFRSF1B, GITR, NGFR and CD40 (hCD137-mFc-Avi [2]): ~1000 fold

B3: FS20-22-49AA/FS30-10 (bispecific antibody, human IgG1, kappa, L234A L235A, V domains shown)
VH: EVQLLESGGGLVQPGGSLRLSCAASGFTFSSYDMSWVRQAPGKGLEWVSDIDPTGSKTDYADSVKGRFTISRDNSKNTLYLQMNSLRAEDTAVYYCARDLMVYGFDYWGQGTLVTVSS
VL: EIVLTQSPGTLSLSPGERATLSCRASQSVSSSYLAWYQQKPGQAPRLLIYGASSRATGIPDRFSGSGSGTDFTLTISRLEPEDFAVYYCQQSYSYPVTFGQGTKVEIKR
notes: also called FS30-10 in mAb^2 format
DO11.10-hCD137 T cell activation assay EC50 (nM), crosslinked [1]: 10.2 nM | fold specificity for CD137 over TNFRSF1A, TNFRSF1B, GITR, NGFR and CD40 (hCD137-mFc-Avi [2]): ~1000 fold

B4: FS20-22-49AA/FS30-35 variant, Methionine (100F) to H (bispecific antibody, V domains shown)
VH: EVQLLESGGGLVQPGGSLRLSCAASGFTFSAYNIHWVRQAPGKGLEWVSDISPYGGATNYADSVKGRFTISRDNSKNTLYLQMNSLRAEDTAVYYCARNLYELSAYSYGHDYWGQGTLVTVSS
VL: EIVLTQSPGTLSLSPGERATLSCRASQSVSSSYLAWYQQKPGQAPRLLIYGASSRATGIPDRFSGSGSGTDFTLTISRLEPEDFAVYYCQQYYYSSPITFGQGTKVEIKR
DO11.10-hCD137 T cell activation assay EC50 (nM), crosslinked [1]: 9.5 nM

B5: FS20-22-49AA/FS30-35 (bispecific antibody, human IgG1, kappa, L234A L235A, V domains shown)
VH: EVQLLESGGGLVQPGGSLRLSCAASGFTFSAYNIHWVRQAPGKGLEWVSDISPYGGATNYADSVKGRFTISRDNSKNTLYLQMNSLRAEDTAVYYCARNLYELSAYSYGMDYWGQGTLVTVSS
VL: EIVLTQSPGTLSLSPGERATLSCRASQSVSSSYLAWYQQKPGQAPRLLIYGASSRATGIPDRFSGSGSGTDFTLTISRLEPEDFAVYYCQQYYYSSPITFGQGTKVEIKR
notes: also called FS30-35 in mAb^2 format
DO11.10-hCD137 T cell activation assay EC50 (nM), crosslinked [1]: 5.5 nM | fold specificity for CD137 over TNFRSF1A, TNFRSF1B, GITR, NGFR and CD40 (hCD137-mFc-Avi [2]): ~1000 fold

B6: G1AA/FS30-6 (antibody, human IgG1, kappa, L234A L235A, V domains shown)
VH: EVQLLESGGGLVQPGGSLRLSCAASGFTVSYYSISWVRQAPGKGLEWVSDIYSYYGYTDYADSVKGRFTISRDNSKNTLYLQMNSLRAEDTAVYYCARVSYGGQAFDYWGQGTLVTVSS
VL: EIVLTQSPGTLSLSPGERATLSCRASQSVSSSYLAWYQQKPGQAPRLLIYGASSRATGIPDRFSGSGSGTDFTLTISRLEPEDFAVYYCQQYDDYPVTFGQGTKVEIKR
Activity of non-crosslinked mAbs at 100 nM (hIL-2 pg/ml) [3]: 532 pg/mL | EC50 (nM), hIL-2 release, primary human CD8+ T cell activation assay, crosslinked mAb [3]: 1 nM | Emax (hIL-2 pg/ml), crosslinked mAb [3]: 1510 pg/mL

B7: FS20-22-49AA/4420 (bispecific antibody, human IgG1, kappa, L234A L235A, V domains shown)
VH: EVKLDETGGGLVQPGRPMKLSCVASGFTFSDYWMNWVRQSPEKGLEWVAQIRNKPYNYETYYSDSVKGRFTISRDDSKSSVYLQMNNLRVEDMGIYYCTGSYYGMDYWGQGTSVTVSS
VL: DVVMTQTPLSLPVSLGDQASISCRSSQSLVHSNGNTYLRWYLQKPGQSPKVLIYKVSNRFSGVPDRFSGSGSGTDFTLKISRVEAEDLGVYFCSQSTHVPWTFGGGTKLEIKR
notes: anti-OX40 Fcab FS20-22-49AA with the Fab of anti-FITC antibody 4420; IgG1 LALA; also called negative control mAb^2
% CD137 ligand blocking activity (hCD137-mFc-Avi [4]): -0.3% | % CD137 ligand blocking activity (hCD137-mFc-Avi [5]): 2%

B8: FS20-22-49AA/FS30-16 (bispecific antibody, human IgG1, kappa, L234A L235A, V domains shown)
VH: EVQLLESGGGLVQPGGSLRLSCAASGFTFSNYAMHWVRQAPGKGLEWVSTIDPTDGATNYADSVKGRFTISRDNSKNTLYLQMNSLRAEDTAVYYCARSKYYTYMQYVALDYWGQGTLVTVSS
VL: EIVLTQSPGTLSLSPGERATLSCRASQSVSSSYLAWYQQKPGQAPRLLIYGASSRATGIPDRFSGSGSGTDFTLTISRLEPEDFAVYYCQQGSRFFPITFGQGTKVEIKR
notes: also called FS30-16 in mAb^2 format
fold specificity for CD137 over TNFRSF1A, TNFRSF1B, GITR, NGFR and CD40 (hCD137-mFc-Avi [2]): ~1000 fold

B9: FS20-22-49AA/FS30-15 (bispecific antibody, human IgG1, kappa, L234A L235A, V domains shown)
VH: EVQLLESGGGLVQPGGSLRLSCAASGFTFSGSGMSWVRQAPGKGLEWVSIIYSTNGDTDYADSVKGRFTISRDNSKNTLYLQMNSLRAEDTAVYYCARDFYDIANYYAFDYWGQGTLVTVSS
VL: EIVLTQSPGTLSLSPGERATLSCRASQSVSSSYLAWYQQKPGQAPRLLIYGASSRATGIPDRFSGSGSGTDFTLTISRLEPEDFAVYYCQQAYYDPITFGQGTKVEIKR
notes: also called FS30-15 in mAb^2 format
binding result (TNFRSF1A-Fc): binds | binding result (TNFRSF1B-Fc): binds | binding result (GITR-hFc-Avi): binds | binding result (NGFR-Fc): binds | binding result (CD40-mFc): binds
